{
  "source": "patent US20200138870A1",
  "about": "“RECREATION OF PANCREATIC NICHE ALLOWS FOR NOVEL METHODS FOR HUMAN, MATURE BETA DERIVATION FROM PLURIPOTENT STEM CELLS” (Baylor College of Medicine, priority 2016, published 2020)",
  "molecules": {"B1": {"name": "WNT5A: secreted growth factor from the human pancreatic niche (R&D), used at 100 or 500 ng/ml (protein)", "chain": "IIGAQPLCSQLAGLSQGQKKLCHLYQDHMQYIGEGAKTGIKECQYQFRHRRWNCSTVDNTSVFGRVMQIGSRETAFTYAVSAAGVVNAMSRACREGELSTCGCSRAARPKDLPRDWLWGGCGDNIDYGYRFAKEFVDARERERIHAKGSYESARILMNLHNNEAGRRTVYNLADVACKCHGVSGSCSLKTCWLQLADFRKVGDALKEKYDSAAAMRLNSRGKLVQVNSRFNSPTTQDLVYIDPSPDYCVRNESTGSLGTQGRLCNKTSEGMDGCELMCCGRGYDQFKTVQTERCHCKFHWCCYVKCKKCTEIVDQFVCK"}},
  "type_in_all_cases": "cell-based, human",
  "key": {"[1]": {"system": "canonical β-catenin-dependent pathway", "assay": "TOPFLASH reporter assay", "details": "100 or 500 ng/ml WNT5A, 3 days", "experimental": "For TOPFLASH reporter assay, 80,000 EPs were transfected with 0.5 μg of TOPFLASH (Addgene #12456) or FOPFLASH (Addgene #12457) from Dr. Randall Moon, together with 0.25 μg pRLTK using Lipofectamine 2000 (Invitrogen) for 48h. Cells were then treated with CHIR99021 (as positive control), DMSO (mock control) or WNT5A for 3 days before collecting the samples. Luciferase assay was performed using Dual luciferase assay system (Promega) which Luciferase and Renilla signal were measured by TD20/20 Luminometer (Turner designs)."}, "[2]": {"system": "hESC-derived EPs", "assay": "Growth factor treatment of hESC-derived EPs for 3 days, immunofluorescence quantification of marker-positive cells", "experimental": "hESC, ISL1-EGFP Hues8 and H1, were maintained under a feeder-free system on Geltrex (Invitrogen) in TeSR-E8 media (Stemcell Technologies). Cells were passaged at 70-80% confluence using TrypLE (Invitrogen). After dissociation, cells were seeded in TeSR-E8 media+10 μM Y-27632 for 24h. Differentiation was started when cells were 90% confluent. The following media and growth factors/small molecules (see also Table 3) were used: Day1: MCDB-131 media with 0.1% BSA+10 mM glucose+ActivinA and CHIR99021. Day2-3: MCDB-131 media+0.1% BSA+10 mM glucose+ActivinA. Day4-5: MCDB-131+0.1% BSA, 10 mM glucose, VitC+KGF. Day6-9: MCDB-131 2% BSA+5.5 mM glucose+Vit.C+ITS (Invitrogen)+ActivinA+KGF+RA+SANT-1+Noggin. Day10-12: MCDB-131+2% BSA+5.5 mM glucose+VitC+ITS+SANT-1+Noggin+PdBU. Day13-15: MCDB-131+2% BSA+5.5 mM glucose+VitC+ITS+Noggin+AlK5i. EPs were dissociated and seeded as 25,000 cells/well on Geltrex-coated 96-well plates in DMEM media (Invitrogen) with B27 Supplement (Thermo Fisher Scientific), later called B27 media, supplemented with 10 µM Y-27632 for 24h. Growth factors (Table 3) were added to B27 media, at two concentrations, and tested on EPs for 3 days. After 3 days, cells were PBS washed, fixed with 4% PFA/PBS for 20 min at room temperature (RT), washed twice with PBS and stained.\n(§1) Cells were incubated with 5% donkey serum (Jackson ImmunoResearch Laboratories) in PBST (PBS+0.1% Triton-X) for 30 min to avoid nonspecific binding of the antibody and to permeabilize the cells. Primary antibodies, diluted in 5% donkey serum in PBST, were then added and incubated at 4° C. overnight with shaking. After primary antibody incubation, cells were washed 3 times with PBST and secondary antibodies conjugated with Alexa-Fluor Dyes (Jackson ImmunoResearch Laboratories) and diluted in 5% donkey serum in PBST were added to the cells for 30 min at RT. Then, cells were thrice washed with PBST and nuclei were stained with Dapi (Roche Diagnostics). For imaging, Leica DMI6000 or confocal Leica TCS SPE was used. Images were initially processed by LAS X software and then further analyzed and quantified using ImageJ software (NIH, W Rasband, http://rsb.info.nih.gov/ij) using cell counter plug-in. Typically, at least 5 randomly selected images were counted per condition."}, "[3]": {"system": "c-JUN", "assay": "p-c-JUN immunofluorescence in EPs", "details": "WNT5A short-term treatment (24h in FIG. 6G)", "experimental": "as §1"}, "[4]": {"system": "EPs", "assay": "Proliferation by phospho-histone H3 (pH3) staining after WNT5A treatment", "experimental": "as §1"}, "[5]": {"system": "EPs", "assay": "Scratch assay (cell migration)", "details": "100 or 500 ng/ml WNT5A, 30h", "experimental": "EPs were dissociated and seeded into 12 well-plate to reach 90% confluence before a scratch was made. 200 μl pipette tip was used to create a smooth scratch and followed by 3h of mitomycin C treatment. Cells were then washed thrice with PBS and B27 media with or without WNT5A was added. Pictures of the scratch wound were taken at 0, 6, 12, 18, 24 and 30h after scratch to observe cell migration. Pictures were analyzed by counting cells migrating into the gap using ImageJ."}, "[6]": {"system": "hESC-derived EPs", "assay": "RNA-sequencing of EPs treated with WNT5A", "experimental": "Total RNA was extracted as described elsewhere herein and RNA quality was assessed using 2100 Bioanalyzer (Agilent Genomics). Samples with RIN≥9 preceded to library preparation using TruSeq stranded mRNA Library Prep Kit LT (Illumina) according to the manufacturer's protocol. Library concentration was determined by qPCR (KAPA Library Quantification Kit) to pool equal amounts of libraries with different adaptor indexes. Sequencing was performed using NextSeq500 (Illumina).\nAfter preliminary analyses, showing a significant Pearson Correlation Coeficient for gene expression, two biological replicates were concatenated and analysed as single samples. This step yielded four samples, two for each treatment (5 days and 12h), as well as untreated samples. All reads were considered single-end in the bioinformatic analyses.\nFor Venn diagram, TFactS analysis and Gene enrichment analysis (GSEA), sequencing reads were first aligned using TopHat and the gene differential expression were assembled and analyzed using Cufflinks. […] To predict which transcription factors are responsible to the gene changes in the sequencing result, TFactS analysis was performed by inputting up and down regulation gene lists. […] For GSEA (http://software.broadinstitute.org/gsea/index.jsp), all input files were generated through GenePattern and the analysis was performed based on the instruction from Broad institute GSEA user guide with the following parameter: phenotype labels as 5dUT versus 5dWNT5A, 1000 genes set of permutations, weighted enrichment statistic, gene sets between 15 to 500, with log 2 ratio of class as metric for ranking genes. […] Data GEO submission number: GSE 90785."}, "[7]": {"details": "5-day long treatment with WNT5A"}},
  "note": "“And” between values parts separate entries of the source, which are not always exact repeats. Identical values can stand only once.",
  "data": [
    {"molecule": "B1", "values": [
      {"measurement": "activity of β-catenin-dependent pathway, TOPFLASH (in words)", "setting": "[1]", "value": "did not significantly activate or antagonize"},
      {"measurement": "number of INS+ cells", "setting": "[2]; 100 ng/ml of WNT5A (30% in B27)", "value": 39, "unit": "%"},
      {"measurement": "number of INS+ cells", "setting": "[2]; 500 ng/ml WNT5A (30% in B27)", "value": 60, "unit": "%"},
      {"measurement": "decrease in the number of GCG+ cells", "setting": "[2]; 3-day EP treatment, vs untreated control", "value": 3, "unit": "fold"},
      {"measurement": "average increase in number of cells positive for all test markers", "setting": "[2]; 3 days treatment of EPs", "value": 5, "unit": "fold"},
      {"measurement": "numbers of ISL1-eGFP, CHGA+, INS+ and C-peptide+ cells over untreated controls (in words)", "setting": "[2]; 3 days treatment of EPs", "value": "increased"},
      {"measurement": "number of INS+ cells among all factors and combinations tested (in words)", "setting": "[2]; WNT5A in different combinations at 500 ng/ml, 3 days", "value": "consistently and most significantly increased"},
      {"measurement": "fold increase in number of ins+ cell generate from hESCs", "setting": "[2]; growth factors alone or in combination", "value": 6, "unit": "fold"},
      {"measurement": "increase in p-c-JUN (number of c-JUN+ cells) compared to untreated control", "setting": "[3]", "value": "9 fold and 6 fold"},
      {"measurement": "effect in EP proliferation (in words)", "setting": "[4]; 3 days of WNT5A treatment", "value": "modest effect"},
      {"measurement": "pH3+ cells", "setting": "[4]; 3 days of WNT5A treatment (1% in control)", "value": 2, "unit": "%"},
      {"measurement": "cell mobility in scratch assays (in words)", "setting": "[5]", "value": "no increase in cell mobility"},
      {"measurement": "downregulation of GCG", "setting": "[6]; 5-day WNT5A treatment", "value": 5, "unit": "fold"},
      {"measurement": "downregulation of MAFB", "setting": "[6]; 5-day WNT5A treatment", "value": 3, "unit": "fold"},
      {"measurement": "downregulation of NGN3", "setting": "[6]; 5-day WNT5A treatment", "value": 2, "unit": "fold"},
      {"measurement": "up-regulation of GCK", "setting": "[6]; 5-day WNT5A treatment", "value": 9, "unit": "fold"},
      {"measurement": "up-regulation of INS", "setting": "[6]; 5-day WNT5A treatment", "value": 81, "unit": "fold"},
      {"measurement": "up-regulation of NEUROD1", "setting": "[6]; 5-day WNT5A treatment", "value": 56, "unit": "fold"},
      {"measurement": "up-regulation of PCSK2", "setting": "[6]; 5-day WNT5A treatment", "value": 7, "unit": "fold"},
      {"measurement": "up-regulation of SYT4", "setting": "[6]; 5-day WNT5A treatment", "value": 16, "unit": "fold"},
      {"measurement": "expression of BMP3, 4, and 6, GDF5 and 9 (in words)", "setting": "[6]; [7]", "value": "downregulated"},
      {"measurement": "expression of DCN and BMP antagonist BMPER (in words)", "setting": "[6]; [7]", "value": "upregulated"}
    ]}
  ]
}
